# Measured values from the RNAGym collection of RNA variant scans (doi:10.1073/pnas.2313332121).
# B1: TPR t1 (parent)
# chain: GACCAAUCUGCCCUCAGAGCUCGAGAACAUCUUCGGAUGCAGAGGAGGCAGGCUUCGGUGGCGCGAUAGCGCCAACGUCCUCAACCUCCAAUGCAUCCCACCACAUGAUGAUGCCUGAAGAGCCUUGGUUUUUUG
# Variants of: B1
# Assay: polymerase ribozyme fitness, log enrichment relative to wild type (log ratio); higher = more active; in vitro selection for triplet polymerase activity
# In short: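 Both subunits of a heterodimeric triplet polymerase ribozyme were given their own mutant library, built by PCR and transcribed. Each library was annealed with a biotinylated primer, the partner subunit and triplets, incubated frozen at −7 °C, and its extended constructs gel-excised, captured on streptavidin beads and amplified by RT-PCR, all in one round done in triplicate. Fitness is the logarithm of genotype enrichment relative to wild-type enrichment, with replicates averaged by inverse-variance weighting. That logarithm is base 2, and Illumina-sequenced genotypes needed ≥10 input reads and ≥1 read per output.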
row,Variant,polymerase ribozyme fitness (log ratio)
1,GACCAAUCUGCCCUUAGAGCUCGAGAACAUCUUCGGAUGCAGAGGAGGCAGGCUUCGAUGGCGCGAUAGCGCCAACGUCCUCAACCUCCAAUGCAUCCCACCACAUGAUGAUGCCUGAAGAGCCUUGGUUUUUUG,-1.84
2,GACCAAUCUGCCCUCAGAGCUCGAGAACAUCUUCGGAUGCAGAGGAGGCAGGCUUUGGUGGCGCGAUAGCGCCAACGUCCUCAACCUCCAAGGCAUCCCACCACAUGAUGAUGCCUGAAGAGCCUUGGUUUUUUG,-2.12
3,GACCAAUCUGCCCUCAGAGCUCGAGAACAUCUUCGGAUGCAGAGGUGGCAGGCUUCGGUGGCGCGAUAGCGCCCACGUCCUCAACCUGCAAUGCAUCCCACCACAUGAUGAUGCCUGAAGAGCCUUGGUUUUUUG,-4.4
4,GACCAAUCUGCCCUCAGAGCUCGAGAACAUCUUCGGAUUCAGAGGAGGCAGGCUUCGGUGGCGCGAUAGCGCCGACGUCCUCAACCUCCAAUGCAUCCCACCACAUGAUGAUGCCUGAAGAGCCUUGGUUUUUUG,-1.85
5,GACCAAUCUGCCCUCAGAGCUCGAGAACAUCUUCGGUUGCUGAGGAGGCCGGCUUCGGUGGCGCGAUAGCGCCAACGUCCUCAACCUCCAAUGCAUCCCACCACAUGAUGAUGCUUGAAGAGCCUUGGUUUUUUG,-4.64
6,GGCCAAUCUGCCCUCAGAGCUCGAGAACAUCUUCGGAUGCAGAGGAGGCAGGCUUCGGUGGAGCGAUAGCGCCAACGUCCUCAACCUCCAAUGCAUCCCACCAUAUGAUGAUGCCUGAAGAGCCUUGGUUUUUUG,-0.429
7,GACCAAUCUGCCCUCAGAGCUCGAGAACAUCUUCGGAUGCAGAGGAGGCAGGCUUCGGUGUCGCGAUAGCGCCAACGUCCUCAACCUCCAAUACAUCCCACCACAUGAUGAUGCCUGAAGAGCCUUGGUUUUUUG,0.0678
8,GACCAAUCUGCCCUCAGAGCUCGAUAACAUCUUCGGAUGCAGAGGAGGCAGGCUUUGGUGGCGCGAUAGCGGCAACGUCCUCAACCUCCAAUGCAUCCCACCACAUGAUGAUGCCUGAAGAGGCUUGGUUUUUUG,-6.31
9,GACCAAUCUGCCCUCAGAGCUCGAGAACAUCUUCGGAUGCAGAGGAGGCAGGCUUCGGUGGCGCGAUAGAGCCAACGUCCUCAACCUCCAAUGCAUCCCACCACAUGAUGAAGCCUGAAGAGCCUUGGUUUUUUG,-0.662
10,GACCAAUCUGCCCUCAGAGCUCGAGAACAUCUUCGGAUGCAGAGGAGGCAGGCUUCGGUGGCGCGAUAGCGCCAACGUCCUCAACCUCCAAUGCAUCCCACCUCAUGAUGAUGCCUGAAGGGUCUUGGUUUUUUG,-2.56
11,GACCAAUCUGACCUCAGAGCUCGAGAACAUCUUCGGAUGCAGAGGAGGCAGGCUUAGGUGGCGCGAUAACGCCAACGUCCUCAGCCUCCAAUGCAUCCCACCACAUGAUGAUGCCUGAAGCGCCUUGGUUUUUUG,-4.27
12,GACCAAUCUGCCCUCAGAGCUCGAGAACAUCUUCGGAUGCAGAGGAUGCAGGCUUCGGUGGCGCGAUAGCGCAAACGCCCUCAACCUUCAAUGCGUCCCACCACAUGAUGAUGCCUGAAGAGCCUUGGUUUUUUG,-4.73
13,GACCAAUCUGCCCUCAGAGCUCGAGAACAUCUUCGGAUGCAGAGGAGGCAGGCUUCGGUGGCGCGAUAGCGCCAACGUCCUCAACCUCCAAUGCAUCCCACCACAUGAUGACGCCUGAAGGGCCUUGGUUUUUUG,2.63
14,GACCAAUCUGACCUCAGAGCUCGAGAACAUCUUCGGAUGCAGAGGAGGCAGGCUUCGGUGGCGCGAUAGCGCCAACGUCCUCAACCACCAAUGCAUCCCACCACAUGAUGAUGCCUGAAGAGCCUUGGUUUUUUG,-1.66
15,GACCAAUCUGCCCUCAGAGCACGAGAAGAUCUUCGGAUGCAGAGGAGGCAGGCUUCAGGGGCGCGAUAGCGCCAACGUCCUCAACCUCCAAUGCAUCCCACCACAUGAUGAUGCCUGAAGAGCUUUGGUAUUUUG,-3.45
16,GACCAAUCGGCCCUCAGAGCUCGAGUACAUCUUCGGAUGCAGAGGAGGCAGGCUUCGGUGGCGCGAUAGCGCCAACGUCCUCAACCUCCAAUGCAUCCCACCACAUGAUGAUGCCUGAAGAGCCUUGGUUUUUUG,-2.33
17,GACCAAUCUGCCCUCAGAGCUGGAGAACAUCUUCGGAUGCAGAGGAGGCAGGCUUCGGUGGCGCGAUAGCGACAACGUCCUCAACCUUCAAUGCAUCCCACCACAUGAUGAUGCCUGAAGAGCCUUGGUUUUUUG,-2.7
18,GACCAAUCUGCCCUCAGAGCUCGAGAACAUCUUCGGAUGCAGAGGAGGCAGGCUUCGGUGGCGCGAUAGCGCCAACGUCAUCAACCUCCAAUACAUCCCACCACAUGAUGAUGCCUGAAGAGCAUUGAUUUUUUG,-5.36
19,GACCAAGCUGCCCUCAGAGCUCGAGAACAUCUUCGGAUGCAGAGGAGGAAGGCUUCGGUGGCGCGAUAGCGCCAACGUCCUCAACCUCCAAUGCAUCCCACCACAUGAUGAUGCCUGAAGAGUCUUGGUUUUUUG,0.939
20,GUCCAAUCUGCCCUCAGAGCUCGAGAACAUCUUCGGAUGCAGAGGAGGCAGGCUUCGGCGGGGCGAUAGCGCCAACGUCCUCAACCUCCAAUGUAUCCCACCACAUGAUGAUGCCUGAAGAGACGUGGUUUUUUG,-6.19
21,GACCAAUCUGCCCUCAGAGCUCGAGAACAUCUUCAGAUGCAGAUGAGGCAGGCUUCGGUGGCGCGAUAGCGCCAACGUCCUCAACCUCCAAUGCAUCCCACCACAUGAUGAUGCAUGAAGAGCGUUGGUUUUUUG,-2.88
